In article PMC5775426:

Legend:
[1] = target: AV2 protein of tomato leaf curl Palampur virus, untagged, in N. benthamiana leaves (Tomato leaf curl Palampur virus); experiment: SDS-PAGE and western blot; leaf extracts of N. benthamiana (PVX-infiltrated at 14 dpi, ToLCPalV-infected, TRV-infiltrated), boiled 5 minutes, 10% SDS-PAGE, detection with AV2 antiserum; dimer told from the band's size
[2] = target: AV2Δ10N, untagged, from PVX-AV2Δ10N in N. benthamiana leaves (Tomato leaf curl Palampur virus); experiment: as above

AV2 protein of tomato leaf curl Palampur virus, untagged, in N. benthamiana leaves (natural protein)
stoichiometry N [1]: 2

AV2Δ10N, untagged, from PVX-AV2Δ10N in N. benthamiana leaves (domain or fragment)
stoichiometry N [2]: 2
